Assay results published in article PMC6733935, “A convenient and efficient total solid-phase synthesis of DOTA-functionalized tumor-targeting peptides for PET imaging of cancer” (EJNMMI Research, 2019).
Square brackets hold non-standard residues; d marks the D form. Peptide text beside a SMILES is read from it. * marks the point of attachment. DOTA = O=C(O)CN1CCN(CC(=O)O)CCN(CC(=O)*)CCN(CC(=O)O)CC1; Cha = N[C@@H](CC1CCCCC1)C(=O)O; 4Abz = Nc1ccc(C(=O)O)cc1; Nle = CCCC[C@H](N)C(=O)O

What was measured:
in vivo = experiment: in vivo; parameters: species or system Balb/c mice; details: Balb/c, mouse, iv
Protocol: Approval for the animal protocol used in this study was obtained from the Institutional Animal Care and Use Committee. Animal studies were conducted according to the international regulations governing the safe and proper use of laboratory animals. In vivo biodistribution were performed on healthy Balb/c mice (n = 3–5 in each group, body weight 19–22 g) at 1 and 2 h after intravenous injection of the HPLC-purified radiopeptide (100 μL, 15–20 μCi, total peptide dose ~ 20 ng) via the lateral tail vein. The mice were sacrificed by cervical dislocation at specified time points and blood samples were withdrawn with a syringe from the heart. Major organs such as lungs, stomach, spleen, pancreas, intestines, liver, kidneys, etc. were isolated, weighed, and radioactivity in each organs and tissues were measured using a γ-scintillation counter. Uptake of radioactivity in the tissues and organs was expressed as the percent injected dose per gram (% ID/g) of tissue/organ, which was calculated by comparison with standard solutions representing 10% of the injected dose per animal. For the clearance studies, radioactivity in the urine with bladder and feces is expressed as the percent of the injected dose per tissue (% ID). Values are expressed as mean ± SD for a group of 3-5 animals at each time point.

[1] = biological target: T1, BN/GRP receptor-positive MDA-MB-231 human breast cancer cells (Homo sapiens, UniProt P30550); experiment: Saturation binding assay on MDA-MB-231 cells; details: n = 3-5 experiments, SD < 15%
T1 construct: BN/GRP receptor-positive MDA-MB-231, MCF7, T47D human breast cancer, and PC3 human prostate cancer lines; host or cells: MDA-MB-231, MCF7, T47D (human breast cancer), PC3 (human prostate cancer); intact cells
Protocol: (§1) The cell binding of ^68Ga-radiolabeled peptides into BN/GRP receptor-positive MDA-MB-231, MCF7, T47D human breast cancer, and PC3 human prostate cancer lines (American Type Culture Collection, Rockville, MD, USA) was performed according to the method described previously. In brief, ∼ 300,000 cells (in 300 μL in low-serum media) were incubated with various amounts of radiopeptides, ranging between 0.1 and 25 nM of peptide (prepared from the serial dilutions of HPLC-purified radiopeptides), in duplicate for 60 min at room temperature. The initial concentrations of ^68Ga-labeled peptides were determined according to a well-established HPLC technique with simultaneous detection by UV absorbance. As the amount of BN peptide in the reaction mixture was too small to be detected by UV absorption at 220 nm, the radioactive peptide chromatograms from the HPLC analysis were compared (with UV chromatograms) with those of known concentrations of the corresponding nonradioactive peptides for the mass determination. Incubation was terminated by dilution with cold saline (300 μL) and the cells were pelleted by centrifugation. The cell pellets was then rapidly washed with cold saline to remove any unbound peptide and centrifuged to collect supernatants. Radioactivity in the cell pellet and the washings was measured in a γ-counter. Non-specific binding was determined in the presence of ~ 200-fold molar excess of unlabeled BN peptide. Specific binding is calculated by subtracting the non-specifically bound radioactivity from that of the total binding. The dissociation constant (Kd) was calculated using a plot of cell bound activity versus the concentration of the radioligand using GraphPad Prism software (GraphPad Software Inc., San Diego, CA, USA).

[2] = biological target: T2, BN/GRP receptor-positive PC3 human prostate cancer cells (Homo sapiens, UniProt P30550); experiment: Saturation binding assay on PC3 cells; details: n = 3-5 experiments, SD < 15%
T2 construct: BN/GRP receptor-positive MDA-MB-231, MCF7, T47D human breast cancer, and PC3 human prostate cancer lines; host or cells: MDA-MB-231, MCF7, T47D (human breast cancer), PC3 (human prostate cancer); intact cells
Protocol: as §1

[3] = assay type: physicochemical
Protocol: For lipophilicity determination, each HPLC-purified radiopeptide (~ 20 μL, ∼ 25 μCi) was added into a glass tube containing an equal volume mixture of n-octanol and water (1 mL each). The samples were vigorously vortexed for 5 min and subsequently centrifuged (5000 rpm, 5 min) to yield two immiscible layers. Duplicate samples (100 μL) from each layer were carefully taken (to avoid cross-contamination between the layers) for radioactivity measurement using a γ-counter. Partition coefficient was determined by the function: partition coefficient = Log10 (radioactivity in octanol layer/radioactivity in aqueous layer).

Question: Which results are given for `CCCC[C@H](NC(=O)[C@H](Cc1c[nH]cn1)NC(=O)[C@H](CC1CCCCC1)NC(=O)[C@@H](NC(=O)[C@H](C)NC(=O)[C@H](Cc1c[nH]c2ccccc12)NC(=O)[C@H](CCC(N)=O)NC(=O)[C@H](CS)NC(=O)CNC(=O)CNC(=O)c1ccc(NC(=O)CN2CCN(CC(=O)O)CCN(CC(=O)O)CCN(CC(=O)O)CC2)cc1)C(C)C)C(=O)N[C@@H](CCSC)C(N)=O` [^68Ga-DOTA-Abz-BN Tris-, metal not drawn] ({DOTA-4Abz}-GGCQWAV[Cha]H[Nle]M-NH2)?
Answer: %ID excreted in Feces (in vivo; 1 h): 0.90 ± 0.10 %ID; %ID excreted in Urine (in vivo; 1 h): 43.0 ± 8.70 %ID; Uptake in Blood (in vivo; 1 h): 0.66 ± 0.13 %ID/g; Uptake in Bone (in vivo; 1 h): 0.22 ± 0.05 %ID/g; Uptake in Intestines (measured without their contents) (in vivo; 1 h): 0.79 ± 0.16 %ID/g; Uptake in Kidneys (in vivo; 1 h): 4.0 ± 0.82 %ID/g; Uptake in Liver (in vivo; 1 h): 1.59 ± 0.23 %ID/g; Uptake in Lungs (in vivo; 1 h): 0.58 ± 0.10 %ID/g; Uptake in Pancreas (in vivo; 1 h): 1.48 ± 0.12 %ID/g; Uptake in Spleen (in vivo; 1 h): 0.11 ± 0.01 %ID/g; Uptake in Stomach (in vivo; 1 h): 1.82 ± 0.36 %ID/g; %ID excreted in Feces (in vivo; 2 h): 0.59 ± 0.08 %ID; %ID excreted in Urine (in vivo; 2 h): 50.0 ± 3.45 %ID; Uptake in Blood (in vivo; 2 h): 0.31 ± 0.05 %ID/g; Uptake in Bone (in vivo; 2 h): 0.12 ± 0.01 %ID/g; Uptake in Intestines (measured without their contents) (in vivo; 2 h): 0.61 ± 0.09 %ID/g; Uptake in Kidneys (in vivo; 2 h): 2.86 ± 0.37 %ID/g; Uptake in Liver (in vivo; 2 h): 0.91 ± 0.15 %ID/g; Uptake in Lungs (in vivo; 2 h): 0.40 ± 0.08 %ID/g; Uptake in Pancreas (in vivo; 2 h): 0.97 ± 0.05 %ID/g; Uptake in Spleen (in vivo; 2 h): 0.10 ± 0.01 %ID/g; Uptake in Stomach (in vivo; 2 h): 0.52 ± 0.12 %ID/g; Bmax (apparent number of binding sites per cell) [1]: 5.89 × 10^5 sites/cell; Bmax (apparent number of binding sites per cell) [2]: 5.90 × 10^5 sites/cell; Log P (octanol/water) [3]: − 1.04 ± 0.10
